Settings in all cases: remark: other sources report otherwise
For assay [1], the target named is T1, p60 TNFR, full-length (Homo sapiens (Human)), P19438.
T1 chain: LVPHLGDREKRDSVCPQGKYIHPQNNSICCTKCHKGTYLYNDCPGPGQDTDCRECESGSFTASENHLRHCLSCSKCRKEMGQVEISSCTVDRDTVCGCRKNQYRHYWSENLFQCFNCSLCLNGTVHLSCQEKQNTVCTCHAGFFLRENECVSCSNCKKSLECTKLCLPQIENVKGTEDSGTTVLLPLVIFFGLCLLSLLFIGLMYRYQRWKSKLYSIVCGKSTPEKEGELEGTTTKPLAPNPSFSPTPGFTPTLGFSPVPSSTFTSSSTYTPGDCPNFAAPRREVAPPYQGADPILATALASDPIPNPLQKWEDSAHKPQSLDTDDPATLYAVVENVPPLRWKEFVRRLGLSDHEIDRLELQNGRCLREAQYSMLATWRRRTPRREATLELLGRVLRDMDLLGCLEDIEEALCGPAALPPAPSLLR
Briefly: DTSSP crosslinking of H9 cells with or without TNFα, non-reducing gel, anti-p60 blot.

Assay [2] deals with T2, Fas fusion proteins with the death domain (CFP and YFP) (Homo sapiens (Human)), P25445.
T2 chain: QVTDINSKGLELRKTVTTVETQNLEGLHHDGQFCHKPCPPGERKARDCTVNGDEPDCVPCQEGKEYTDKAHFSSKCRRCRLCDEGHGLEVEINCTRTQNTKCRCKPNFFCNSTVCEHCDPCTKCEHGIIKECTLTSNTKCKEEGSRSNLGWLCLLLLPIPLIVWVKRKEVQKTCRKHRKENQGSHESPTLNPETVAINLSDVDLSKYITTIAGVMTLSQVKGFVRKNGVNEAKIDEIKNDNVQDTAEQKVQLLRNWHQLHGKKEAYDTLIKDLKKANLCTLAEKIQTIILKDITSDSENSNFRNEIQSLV
Briefly: CFP dequenching after YFP photobleaching, microscope.

Assay [3] deals with T3, native Fas receptor of H9 lymphoma cells (Homo sapiens (Human)), P25445.
T3 chain: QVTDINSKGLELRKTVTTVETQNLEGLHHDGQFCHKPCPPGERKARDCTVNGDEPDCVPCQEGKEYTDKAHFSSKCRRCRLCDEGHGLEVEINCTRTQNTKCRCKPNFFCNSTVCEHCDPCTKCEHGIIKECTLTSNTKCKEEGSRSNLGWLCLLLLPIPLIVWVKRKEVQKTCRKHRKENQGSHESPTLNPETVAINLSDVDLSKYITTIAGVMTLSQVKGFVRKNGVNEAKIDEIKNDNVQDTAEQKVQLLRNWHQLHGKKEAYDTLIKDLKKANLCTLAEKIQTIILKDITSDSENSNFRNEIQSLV
Briefly: DTSSP crosslinking of H9 cells, deglycosylated lysates, anti-Fas blot.

B1: p60 TNFR, full-length, P19438 30-455 (receptor)
chain: LVPHLGDREKRDSVCPQGKYIHPQNNSICCTKCHKGTYLYNDCPGPGQDTDCRECESGSFTASENHLRHCLSCSKCRKEMGQVEISSCTVDRDTVCGCRKNQYRHYWSENLFQCFNCSLCLNGTVHLSCQEKQNTVCTCHAGFFLRENECVSCSNCKKSLECTKLCLPQIENVKGTEDSGTTVLLPLVIFFGLCLLSLLFIGLMYRYQRWKSKLYSIVCGKSTPEKEGELEGTTTKPLAPNPSFSPTPGFTPTLGFSPVPSSTFTSSSTYTPGDCPNFAAPRREVAPPYQGADPILATALASDPIPNPLQKWEDSAHKPQSLDTDDPATLYAVVENVPPLRWKEFVRRLGLSDHEIDRLELQNGRCLREAQYSMLATWRRRTPRREATLELLGRVLRDMDLLGCLEDIEEALCGPAALPPAPSLLR
Take B1: in assay [1], the percent of chains cross-linked as apparent trimers and higher order complexes is 15 to 20%.

B2: Fas fusion proteins with the death domain (CFP and YFP), P25445 26-335 (receptor, not shown: large carriers)
chain: QVTDINSKGLELRKTVTTVETQNLEGLHHDGQFCHKPCPPGERKARDCTVNGDEPDCVPCQEGKEYTDKAHFSSKCRRCRLCDEGHGLEVEINCTRTQNTKCRCKPNFFCNSTVCEHCDPCTKCEHGIIKECTLTSNTKCKEEGSRSNLGWLCLLLLPIPLIVWVKRKEVQKTCRKHRKENQGSHESPTLNPETVAINLSDVDLSKYITTIAGVMTLSQVKGFVRKNGVNEAKIDEIKNDNVQDTAEQKVQLLRNWHQLHGKKEAYDTLIKDLKKANLCTLAEKIQTIILKDITSDSENSNFRNEIQSLV
B2 showed an FRET efficiency (E%) in assay [2] of 27%.

B3: native Fas receptor of H9 lymphoma cells, P25445 26-335 (receptor)
chain: QVTDINSKGLELRKTVTTVETQNLEGLHHDGQFCHKPCPPGERKARDCTVNGDEPDCVPCQEGKEYTDKAHFSSKCRRCRLCDEGHGLEVEINCTRTQNTKCRCKPNFFCNSTVCEHCDPCTKCEHGIIKECTLTSNTKCKEEGSRSNLGWLCLLLLPIPLIVWVKRKEVQKTCRKHRKENQGSHESPTLNPETVAINLSDVDLSKYITTIAGVMTLSQVKGFVRKNGVNEAKIDEIKNDNVQDTAEQKVQLLRNWHQLHGKKEAYDTLIKDLKKANLCTLAEKIQTIILKDITSDSENSNFRNEIQSLV
Take B3: in assay [3], the percent of chains cross-linked as trimers (densitometry) was determined as 60%.

These data come from patent US20100041596A1.
